Experimental data taken from the DeepSol protein solubility set.

Assay: soluble on expression in E. coli; label from the status in PepcDB or PDB records

Sequence | soluble on expression in E. coli
MSLAKQDELVFLPLGGVGEIGMNLALYGYGPPEHRQWIMVDCGVTFPGPDLPGVDLVLPDIRFLASERKNLKAIIITHAHEDHYGALADLWPGLNVPVYASGFTAGLLEAKRNFEKAKIGEVPVTPFKAGDTINVGPFSIEGVAVNHSIPEPMSLMIRTPVGNVIHTGDWKIDHEPSLGPLTDETRFRQLGDEGVLALMCDSTNALRDGVSPSEKDVSESLRKIIENAEGRVAITTFSSNVGRIRTVAEAAEAAGREVLLLGSSLKRVVDVAQDVGLMEGVKPFISEEEYGYIPRDKVVVILTGSQGEARAALAKLSRDEMRNVAFAAGDIVVFSSRAIPGNEKAIQDIKNGLVEQGVHIITDTEALVHVSGHPRRNELQRMYEWTRPKIVVPVHGEATHLTAHKELAEQSGIALVPRVRNGDILRLAPGEGHHHHHH | soluble
MSLAKTVEEINQKIREGNVVVVTAAEMKDIVEELGPEKAAKEVDVVTTGTFGAMCSSGAFFNFGHADPPIKMQRVWMNDVEAYTGIAAVDAYLGVTQLSESVEEYGGSHVIEELVKGREVELKATAYGTDCYPRKEIVTEVSLEDVNQAVMVNPRNAYQRYNAATNSSNKLLRTYMGTLLPNFGNVTFAGTGEISPLNNDPEYRTIGIGTRIFLCGAKGYVIGEGTQHAPPYGTLMVKGNLKEMKPEYMKAAYFPGYGATLFVGIGIPIPILDAEMAKFTAVRNSEIETKILDFGVARRDRPVVRKVTYEELISGRVEINGEEVRVSPLSSFYMAEKIMKELKRQIERGEFLLTAPVDRIPTKEVFKPMRQREVKVVKSVMVEAYTISPETAIEEAARIMMDKGINHIPVVEEGRLVGIITSWDIAKAVARNRKGAVKSIMTRNVIYTHPDEPVEVAARKMEQNNISALPVVDSRKRVLGIVTSEDLSKLIAREGHHHHHH | soluble
MSLALDLLLLPTWLVPVEPAGVVLREHGLGIRDGHIVFIGPRAEALKYRATEIRELPDTLLTPGLINAHGHAAMTLFRGLADDLLLMTWLEKHIWPAEAKWVDEAFVRDGTDLAIAEQIKGGITCFSDMYFFPKVASERVHNSGMRAQVAIPILDFPIPGAQNADEAIRQGVELFGDLKHHPRINITFGPHAPYTVGDENLEKIRIIAEELDAAIHMHVHETAHEVQQSVEQHGERPLARLARLGLLGPRFQAVHMTQISDDDLALLVETNTSVIHCPESNLKLASGFCPVERLWQAGVNVAVGTDGAASNNDLDLLGETRTAALLAKAVAGSATALDAHRALRMATLNGARAMGLESQVGSLEIGKAADLTAFDLSGLAQQPIYDPVSQLIYATGRDCVKHVWVAGKQLLDDRCLTRLDEHQLGATARDWARRISGHEGHHHHHH | soluble
MSLALLNVDKLSVHFGDESAPFRAVDRISYSVKQGEVVGIVGESGSGKSVSSLAIMGLIDYPGRVMAEKLEFNGQDLQRISEKERRNLVGAEVAMIFQDPMTSLNPCYTVGFQIMEAIKVHQGGNKSTRRQRAIDLLNQVGIPDPASRLDVYPHQLSGGMSQRVMIAMAIACRPKLLIADEPTTALDVTIQAQIIELLLELQQKENMALVLITHDLALVAEAAHKIIVMYAGQVVETGDAHAIFHAPRHPYTQALLRALPEFAQDKERLASLPGVVPGKYDRPNGCLLNPRCPYATDRCRAEEPALNMLADGRQSKCHYPLDDAGRPTEGHHHHHH | soluble
MSLAMKKHLFTLTLSSVLAIPAVSHAEFKGGFADIGIHYLDWTSRTTEKSSTKSHKDDFGYLELEGGANFSWGEMYGFFDWENFYNDRHDKPGSEQRYTFKNTNRIYLGDTGFNLYLHAYGTYGSANRVNFHDDMFLYGIGYNFTGSGWWFKPFFAKRYTDQTYYTGDNGYVAGWVAGYSFMLGSEKFTLTNWNEYEFDRDATYAAGNGGKEGLNGAVALWWNATSHITTGIQYRYADDKLGEDFYQDAIIYSIKFNFEGHHHHHH | not soluble
MSLANKILTEKDTDQIRFSILASGSSGNATLVETGDQKILIDCGLSGKKMEGLFAQVGRDMNDLDAILITHEHSDHIKGLGVLARKYKLPIYANAKTWKAMDNMIGEVSSDQKFQFDMETVKTFGSMQVESFGVSHDAIEPMFYIFHKGNKKFVMITDTGYVSDRMKGHIAGADAYLFESNHDVEMLRMGRYPWNVKRRILGDEGHVSNEDAAIAMSEVITDQTKRIYLGHLSKDNNMKELARMSVTQTLMAEGIDVGGKLEIFDTDPDNATSIFTEGHHHHHH | not soluble
MSLAPQRCHRFQSSAYRSNQWRYRGRCDSIQFAVDRRVFIAGLGLYGSSSGKAEYSVKIELKRLGVVLAQNLTKFMSDGSSNTFPVWFEHPVQVEQDTFYTASAVLDGSELSYFGQEGMTEVQCGKVAFQFQCSSDSTNGTGVQGGQIPELIFYAEGHHHHHH | soluble
MSLAQRLATGKAGSIGLVMPTAPGHQSDVHFGEFLAGLGEEAVRHDFHFVIMPSDPDDEVAALRRLAISGNVDALFIAYMRGHDPRLAMLKSLSMPYVVHGRSFGAELDYPYLDIDNEGAFYDATRLLLQLGHTRFALMNGPMHLDFAIRRRNGVISALAERGLTLEEDCMSHALMTDEQGLLAMERFLQLPERPTAILCSSTVMALGAIRAVNQAGLRLGEDVSLIAHDDVLPLLKPENFSVPLTTTRSSLRAAGVRIAQRLIGTVKQAGPFPEQELWKTELIVRASTGPAPQEGHHHHHH | soluble
MSLARSTPAIVILGQGSLDTARQIQRLYPDSLIHGLAERVEGADRVYHEFGATLRQLYQQDTPIIALCAAGIVIRTLAPLLLEKGAEPPVLAVAEDGSAVVPLLGGLGGVNVMAREIAAGLGVAAAITTSGELRFGTCLLNPPSGYALGDLELGKRFVSDLLGGESVRIEGAAPWLAAAKLPENDQARLTIRVGSAEREPVANELLIYPRSVLVACRGQRLAGEADSDLATHIRQALHQARIAVQSVACLLAADRDMADRALHQAAAQLGVPLRFLPAADSVAELAQQAVPQLLPPLKVGEDIAIAVASQPLDPEQIGRPRGRLAVIGLGPGAAELMVPAVKAELARANDILGYETYVRMAGPFRADQVMHCTDNREEMQRARHAFELAAQGRSVVVVSSGDPGVFAMAAAVIEALHESSDPAWHSVDLEILPGVSASLATAAQAGAPLGHDFCVLSLSDNLKPWDIIEKRLDLASQADLALAFYNPISRSRPWQLGRALEIVRQHRTPQTPVVLGRDIGRPGQTLRVITLGELTPEQVDMRTMVLVGSSTTCVFPRAGGGDWVYTPRWYGNKEGHHHHHH | soluble
MSLASQSEAEVLIGVAGPMSGKLAWTGTQLRRGAEMAVANINAAGGVLGQQVRLIVADDFCDPRQALAAAEKLVADGAVFVIGHYCSGASIPASKIYAAAGVLQISPSSTNPMLTEQGHANVFRVCSRDDAQGHKAGNYLADHWGDSKIAILHDNTTYGKGLADETKKQLNMRGVTEAVYQSYTPGKDDYSVEVAALQTAHIAVLYLGGYHTEAALMVRAARDRAYPVQLISGDDTATEAFGLIAGPAAEGTLFTFVADPRRNAEAAEVVERFRAENFEPDSWTLHSYGAAEIWAQAVTKANSLDLQAVIAALREDQFDTVLGRIDFDKKGDLTVQSWVWYVWKSGEYVPVEEGHHHHHH | soluble
MSLATICSLCNKKISIFKMRLKFKDGVVGQSCLSELNLCNFWAFEPGAKEYAESHTIADLKELQTSGKDFTNIQDQYIDDETKKELQKKQEKKQERQEKIEVLKEFKDDGATKFSSYYFDLKKNQILSSGSLTTSWRVIDFSEVLSYQVNRNGHLEQKHHGIARAVTGGIMAGGVGAIVGTTTGENTDYIDHLGLVINLSDGTNFEVKFLKTKTKTNSFTVKTAEGELRSLISIVQSGMNKAQEKAEQEQTKANTIKIESNADPAEEIRKFKKMADEGIISNEEFEAKKKQLLNLQEGHHHHHH | not soluble
MSLATKDPTAVERANLLNMAKLSIKGLIESALSFGRTLDSDYPPLQQFFVVMEHCLKHGLKGRKSFLSYNKTIWGPLELVEKLYPEAEEIGASVRDLPGLKTPLGRARAWLRLALMQKKMADYLRCLIIQRELLSEFYEYHALMMEEEGAVIVGLLVGLNVIDANLCVKGEDLDSQVGVIDFSMYLKNEEEIGNKERNVQIAAILDQKNYVEELNRQLNSTVSSLHSRVDSLEKSNTKLIEELAIAKNNIIKLQEENHQLRSENELILMRTRQHLEVTKVDVETELQTYKHSRQGLDEMYNDARRQLRDESQLRQDVENELSVQVGMKHEMELAMKLLEKDIHEKQDTLIGLRQQLEEVKAINIEMYQRLQGSEDGLKEKNEIIARLEEKTNKITTAMRQLEQRLQQAEKAQKEAEAEDEKYAQECLSQSDSLQRQISQKEQQLVQLETDLKIEKEWRQTLQEDLQKEKDVLSHLRHETQKVISLKKEFLNLQDENQQLKRIYQEQEQALQELGSKLCESKLKIDDIKEANKALQGLVWLKDKDATHCKLCEKEFSLSKRKHHCRNCGEIFCNACSDNELPLPSSPKPVRVCDSCHAMLIQRCSSNMPEGHHHHHH | not soluble
MSLATLQDLDLTGNTNLVLEHKTLDIFSHITTLKIDQKPLPTTDSTVTSTFWSHGLAEMAGQRNKLCVSALAMDSFAEGVGAVYGMFDGDRNEELPRLLQCTMADVLLEEVQQSTNDTVFMANTFLVSHRKLGMAGQKLGSSALLCYIRPDTADPASSFSLTVANVGTCQAVLCRGGKPVPLSKVFSLEQDPEEAQRVKDQKAIITEDNKVNGVTCCTRMLGCTYLYPWILPKPHISSTPLTIQDELLILGNKALWEHLSYTEAVNAVRHVQDPLAAAKKLCTLAQSYGCQDNVGAMVVYLNIGEEGCTCEMNGLTLPGPVGFASTTTIKEGHHHHHH | soluble
MSLATTVKIATISPLSGSSSNLGLQIKNGAQLAVNEYKAEFAKLGMNLSLVAYDDQADPATGTAAARRVVADKNVLAVVGTLNTGVAIPASQALSTSKVAMVSPANTGTKVTDRGLKNMNRICARDDAQGPAGADFMVSTLKVKKVYVINDKTPYGEGLSGEAEKRLKAKGVQIVQSEGVAAEERDFTAIITKIQTLKPDAIYFGGLYGQIGPFAQQLRAKGVQVPLIGGDGMDSDELAKLAGAQGANNIYFTTVAPPLDSVPAAKTMAGNFKKAFGSDVQGYGIMGYDSAKVVLQGILDAAKKNGNKAPSRAQVETAIRSGTFGNLLTGTVQFDKNGDRKAGKMYVIAIKNAQRSTAGQVNVLREGHHHHHH | soluble
MSLATWSAERFGFGAALGDHDRARRAAVGEAVERYCGNAVPDALEIACYDDLARAGRPALDPATLALYSDRQYRARGFPFRPFTRQTPVAWVPGRDLYAGGPVLVPASMAYLNYFRGAHADEVATHAMLYAGIATGENREHAERFALEELFERDANTIWWASGAAGWAVADAAELLDRYDIAHGEGTGRTIRLFQVPSQFPVPVLAAFLEEPGRGLIAYGTACRADPREAATKALVEAFAMLELTAELADGDSAHWRAVARGEIPPHTYLPYRADRRYADDIRPDFRDLVDLPAVAQLYLDPRMQGRPLDRLRDDTRTTRLADIPRADGDANGGTAHRRYLDMLATQGLSAVSVDVTTPDVRAAGLTVVRVIVPGLYGNPPAAFPFLGGERLYDVPAQLGLAAGKITEDALYPYPIPHEGHHHHHH | not soluble
MSLCDRSEVGDVSLGMFTLKDIKINNLTDPVVTGVTCHVASIEADLSLADPSDSSISCRQTGEITPEMIAQIDKSSSGEVVFQKSKSIFFKSMKIRRIFDAKNQTLMYLSYSTKETSGSFKHSLSTVPLWGTQAYNAFPETQNKEGHHHHHH | soluble
MSLCRVLRVKHSSYYDWLSRDISEQQIHRNHCELLVKAAHSETHERYGVERLHAHLSEQGHNISPYMVRSIKEEYSIKCRRHKRFKVTTDSNHNKLVYPNVLDQEFDASRPNQAWASDITYIWTLEGWLYLAGVKDLYTKELVGYAINKRMTADLVCKALNMAIKNKQPSKGLVVHSDRGSQYCSHAYHKIIKQHQFTGSMSGKGNCFDNAPIESFWGILKNELVYHQDYKTRFAAIRDIIGYIELYYNQTRIQKGLGYKSPRQVWFDYYRQAAEGHHHHHH | soluble
MSLDDHTRDPTVKAPDGNPSGWRTDGQWEHETLRRAVVHGVRLYNSGEFHESHDCFEDEWYNYGRGNTESKFLHGMVQVAAGAYKHFDFEDDDGMRSLFRTSLQYFRGVPNDYYGVDLLDVRTTVTNALSDPSALHGWQIRLDGEYPTCRPEDIEFAESLEHEGHHHHHH | soluble
